# Measured values published in the DeepSol protein solubility set.
# Experiment: soluble on expression in E. coli; label from the status in PepcDB or PDB records
row,Sequence,soluble on expression in E. coli
1,MKLCGKLANITTVDYGGIACHAGVDRRISLHNFTISLPESGNPMSATFDPDNLRASLLALNVIDPLSLDGQAYQRFYGLAGLGGENVVRSWLGRLDVDGYEIVGQVWLPESPVATLFLFHGFYDHMGLYRHVIEWALTQGFAVISCDLPGHGLSSGSRASINDFAEYQVVLQRLLLEAGSLGLPHPWHLCGQSTGGAIVIDHLLHQGAESPAQGEVILLAPLVRPRAWGWSRFSYRLLKPFVSGIARRFTENSNAPAFLPFLLADPLQPRRLPTAWVGALAQWIVRVESAPRSLRSPIIIQGDADMTVDWSHNLAVLKDKFSQPHILMLGHARHHLANETPELRARYFDFVKGRLG,not soluble
2,MSLKPLFGEKDESNISPITKQLTEEEASKVIAEVNGEQILYKDFYFIYSQQAAYYGLTTEDEDSLSDDTKEILNTIKKELLTQLIQQKLAKQKAKEAGYEVTKERLDEASEAIEEMIRNMAEQMKLSSPSEAESRDFLKEARDFINSELKAMRITMDEYIRDTAEYMIVTDFMEDLTKDIVVTDEEIKKYYDEQLKIQQENPEEAAYAEVQLIQPASSRVKHILIALPEEEQQEYQNLKSEGKDEEAEAYLKEKLEAIKPKAEEVLNKAKNGEDFEALIKEYGEDPGMESEQYKDGYTVTKNSGFIKSFEDASLALGVGEISDLVEGPYGYHIIKVYEKTEAKPYTQEEKKSEIESLLKSQKKTNFMNEKMKEWESASTIVRHDDEGHHHHHH,soluble
3,MAHHHHHHMHAEAAAEAAMPVIATLSSRVVRIMGLNPGYMTLQGSNTYLVGTGQERLLIDSGEGVEGYGHLLQKAVAEESTRLGGPVHISKLLLTHWHGDHIGGVETVRRLFPQVQLLKQPSQYAHTEVDALCQVPPEVVKVEGATLQLVHTPGHTDDHLCAFLQEERALFTSDTVLGTGTSVFSSFRDYMASLHVLERMKPERLYPAHGPVVEDGTARIEEIIRHRHTREKQILQVLCERTHGVSALDSEKGLTVRELVDTIYTTIPAALKTAAGTNVFHHVKKLLNEGRVVVRYAPADLVHFLKDATDYTVFGEGADADVKVIERILTEFRVAAAGVSSGAP,soluble
4,GAMVSGQIMHAVGEEGGHVKYVCKIENYDQSTQVTWYFGVRQLENSEKYEITYEDGVAILYVKDITKLDDGTYRCKVVNDYGEDSSYAELFVKGVRE,soluble
5,MLSKIELMLLRSLETGKTYTPEEAAELSGLSKDAVLKAAYMLQERGYVRVIENVRTHYSLTEEGERYLKEGLPEEKLYSLVKSGVNSMDELRKRMGREFQIALGWLRRKGAVEVEGDKVVPKREPSFDERA,soluble
6,MGSDKIHHHHHHMNKVTINPQIQLTYQIEGKGDPIILLHGLDGNLAGFEDLQHQLASSYKVLTYDLRGHGKSSKSESYDLNDHVEDLKILMEKLNIHEAHILGHDLGGVVAKLFTDKYAYRVKSLTTIASKKDDLIHSFTQLLIQYQDDIAGFNKSEAYILLFSKLFRNQEKTMKWYQKQRIYSIKSEDDSAVAIRSLILHKDEPMYLKKRTCVPTLLINGEHDPLIKDKNHFKLEAHFLNVTKKIFEHSGHAPHIEEPEAFMNYYLNFLKSVS,not soluble
7,MAEAASCARKGTKYAEGTQPFTVLIEGNIGSGKTTYLNHFEKYKNDICLLTEPVEKWRNVNGVNLLELMYKDPKKWAMPFQSYVTLTMLQSHTAPTNKKLKIMERSIFSARYCFVENMRRNGSLEQGMYNTLEEWYKFIEESIHVQADLIIYLRTSPEVAYERIRQRARSEESCVPLKYLQELHELHEDWLIHQRRPQSCKVLVLDADLNLENIGTEYQRSESSIFDAISSNQQPSPVLVSPSKRQRVAR,soluble
8,GMEFLMKISHLDHLVLTVADIPTTTKFYEKVLGMKAVSFGSGRIALEFGHQKINLHQLGHEFEPKAQNVRTGSADLCFITDIDLSDAMEYVENQGVVIMEGPVKRTGAQGAITSFYFRDPDGNLIEVSTYSNT,soluble
9,MSKVKIELFTSPMCPHCPAAKRVVEEVANEMPDAVEVEYINVMENPQKAMEYGIMAVPTIVINGDVEFIGAPTKEALVEAIKKRL,soluble
10,MSLESYVPNNEAKFPENISYGSMGGPTFSTVISELGGGKEQRKVNWTHSRNRYNVAYNTASSDQCSALISFFYAHRGKALPFRFKDWSDYTATGQNIGVGDGKSLNFQLVKRYHAGQYSYVRKISRPVVGTVKMSLGEVSQEYERDYSVDYNSGVVTFAVPPAHNATIHADFEFDVLVRFDTDFLAFAMEAHGNYGCHGVSLVEVSEEGHHHHHH,soluble
11,MGSSTSTPAPPPKKNKPEGRKADNQILNSYQKSIVRNAWRHMSQKGPSNCGSTITRRMMARKSTIGDILDRSTLDYHNLQIVEFLQKVMQSLDEPDKISKLCQEIGQKHAKYRRSKGMKIDYWDKLGEAITETIREYQGWKIHRESLRAATVLVSYVVDQLRFGYSRGLHVQGSRETKEDDEE,not soluble
12,MGSDKIHHHHHHMNFIDTLKSVDLILSTGEVPLIVGESGIGKTALANKLAKENDWSLIVIDGNLLKEGEIGGLPTIESYVGVNSNGYKTEKKTTVYAVHNKLREIDEEISKSKTVLLFIDEINRCEHTVQQELMNLILNREINGYKLHDDVKILAAMNPSSKYGSDFDYQVVDMDAAQENRFVWLNMESDHTQWIKWAIDEGIERKVIEFISTFPEYLHKINEDDVRATPRSYERVSKIYKVYKEKNNSIPRAVFLNVVKGNVGKVIAEEFISFIESNFEPLISYEDVFLGESIDESIVERVKNESHTRLYLSAMNILKDLELNIKNDKYESNHYINRFIEFLKMYPVDLMIGIMKDIRNSYIEVYKKAIENEEFVKSYFESYSLIRG,not soluble
13,MFQISELANYRLCKRCSGRIFAYHYHGISNLERGEYLQFAIGCETGNPDFSFVDSKNCDICHGIFDRFDDIYDLVAKKVGDAQYSTFLVGSVFPQDTIRMEEDIQKKFGSSGESIKKEFNREFGKYFSARTGKEYSQDNPDLTILVNAEYLFVDVKIRSIYIYGKYRKFRRDMPQTRWIHRPNGDTVESVIGSVFTRYAGGTNYYLHGSGREDVDVRMLGNGREFVLEVENPRYREFELDPVVKEINTSGKGVEIFDVKFSSHDAVSEVKLEKHRKVYDALVVSDRPIDESRLLEACINLTGKNIYQRTPLRVAQRRSDLVRTRRIDQVDLVGVSANEAEILISAEAGTYIKELVNGDGGRTRPSLSEMYGSPLNVKELDVIKICRGEDLEHHHHHH,soluble
14,MPSYKLSYFPVRGLAESARLLFHLAGVPFEDERVNFLDDTWEKMKGKTPMGQLPVLTVDDFEIPQSAAINRYLARKFGFAGKTPEEEAWVDAVVDQFKDFFAEFRKLVIAKRVGKSAEELEKLTAEVIKPAMDVYFKVLNGLLEKSKSGYLIGDSITFADLYIADNIQTLKKYGLLEASGEQPKLAAHLEKVYSHPNLKSYIASRPVTEI,not soluble
15,MSLSSKDLKLSTDVCEQILRVVSRSNRLEELVLENAGLRTDFAQKLASALAHNPNSGLHTINLAGNPLEDRGVSSLSIQFAKLPKGLKHLNLSKTSLSPKGVNSLSQSLSANPLTASTLVHLDLSGNVLRGDDLSHMYNFLAQPNAIVHLDLSNTECSLDMVCGALLRGCLQYLAVLNLSRTVFSHRKGKEVPPSFKQFFSSSLALMHINLSGTKLSPEPLKALLLGLACNHNLKGVSLDLSNCELRSGGAQVLEGCIAEIHNITSLDISDNGLESDLSTLIVWLSKNRSIQHLALGKNFNNMKSKNLTPVLDNLVQMIQDEESPLQSLSLADSKLKTEVTIIINALGSNTSLTKVDISGNGMGDMGAKMLAKALQINTKLRTVIWDKNNITAQGFQDIAVAMEKNYTLRFMPIPMYDASQALKTNPEKTEDALQKIENYLLRNHETRKYLQEQAYRLQQGIVTSTTQQMIDRICVKVQDHLNSLRNCGGDAIQEDLKSAERLMRDAKNSKTLLPNLYHVGGASWAGASGLLSSPIQETLESMAGEVTRVVDEQLKALLESMVDAAENLCPNVMKKAHIRQDLIHASTEKISIPRTFVKNVLLEQSGIDILNKISEVKLTVASFLSDRIVDEILDALSHCHHKLADHFSRRGKTLPQQEGHHHHHH,not soluble
16,SADNGGYVPAVVIGTGYGAAVSALRLGEAGVQTLMLEMGQLWNQPGPDGNIFCGMLNPDKRSSWFKNRTEAPLGSFLWLDVVNRNIDPYAGVLDRVNYDQMSVYVGRGVGGGSLVNGGMAVEPKRSYFEEILPRVDSSEMYDRYFPRANSMLRVNHIDTKWFEDTEWYKFARVSREQAGKAGLGTVFVPNVYDFGYMQREAAGEVPKSALATEVIYGNNHGKQSLDKTYLAAALGTGKVTIQTLHQVKTIRQTKDGGYALTVEQKDTDGKLLATKEISCRYLFLGAGSLGSTELLVRARDTGTLPNLNSEVGAGWGPNGNIMTARANHMWNPTGAHQSSIPALGIDAWDNSDSSVFAQIAPMPAGLETWVSLYLAITKNPQRGTFVYDAATDRAKLNWTRDQNAPAVNAAKALFDRINKANGTIYRYDLFGTQLKAFADDFCYQPLGGCVLGKATDDYGRVAGYKNLYVTDGSLIPGSVGVNPFVTITALAERNVERIIKQDVTAS,soluble
17,LNAAMNLKREFVHRVQRFVVNPIGRQLPMTMLETIGRKTGQPRRTAVGGRVVDNQFWMVSEHGEHSDYVYNIKANPAVRVRIGGRWRSGTAYLLPDDDPRQRLRGLPRLNSAGVRAMGTDLLTIRVDLD,soluble
18,SLLGQKSQRYKAEEGLQAQGEAPGLMDVQIPTAEEQKAASSSSTLIMGTLEEVTDSGSPSPPQSPEGASSSLTVTDSTLWSQSDEGSSSNEEEGPSTSPDPAHLESLFREALDEKVAELVRFLLRKYQIKEPVTKAEMLESVIKNYKNHFPDIFSKASECMQVIFGIDVKEVDPAGHSYILVTCLGLSYDGLLGDDQSTPKTGLLIIVLGMILMEGSRAPEEAIWEALSVMGLYDGREHSVYWKLRKLLTQEWVQENYLEYRQAPGSDPVRYEFLWGPRALAETSYVKVLEHVVRVNARVRISYPSLHEEALGEEKGV,soluble
19,MSKYKTILQSNKDELHSLYEIANQDSWKPIYHIHPPFGLMNDPNGVSYYNDEYHVFYQWYPFGPIHGMKHWGHVRSKDLINWERMPVAIIPTESYESHGAYSGSAIVKDGLLHLLYTGNIKKPDDSRDAKQCMASMDSQYTMTKYSNNPVIDIIPDGYTKHVRDPKVWKHNDMYYMLLGAQRENKTGTLLLYKSQDLYNWHFQGEITTNLKEFGFMWECPDYFQLSGKDVLLFSPQGIEKDGENFHNVYNVVYAIGHFDIKNLYFHVDSYYEADKGFDFYAPQTLEDSTSRRLLFAWAGSSEITYPSDDYMWAHCLTLPRELTLEDNILKQKPVSELTKLRTTKKDISGDITAGLNVLSTLDDEDSYELIVTLKTEDAKRFGLSLFHNEEECFPITFNREQGTISIDRGNFYHQFGGEYGFERCKKIDIQDTIELQIFVDKSIVEIFLYDGSTVFTSRVFPRKDMKHHIAIFSDAKLNFTITQYKLKRGIVLEHHHHHH,soluble
20,SHMALRIIPCLDIDGGAKVVVKGVNFQGIREVGDPVEMAVRYEEEGADEIAILDITAAPEGRATFIDSVKRVAEAVSIPVLVGGGVRSLEDATTLFRAGADKVSVNTAAVRNPQLVALLAREFGSQSTVVAIDAKWNGEYYEVYVKGGREATGLDAVKWAKEVEELGAGEILLTSIDRDGTGLGYDVELIRRVADSVRIPVIASGGAGRVEHFYEAAAAGADAVLAASLFHFRVLSIAQVKRYLKERGVEVRI,soluble
21,MSLSDQPVLFSRAAASCRLTLNREDKCHAINEEMIESLDHYLNEIENDTALRLVELTATGDKFFCAGGDIKSWSAYSPLDMGRKWIKRGNDVFNRLRNLPQLTVANLNGHTIGGGIELALCCDIRIARPHAKFSNPEVMLGMVPGWMGIERVLNQVGPVVGRQMLMLGKRLTAQEAQAANLIDEVVEKEQVESWMANQLAQLEKCGPVALAHIKQLILALENKHADYSHQLLAGLMSATQDCQQATHAFAEKAGVSFHNQEGHHHHHH,soluble
